Results: PMC8998802 (2019)

Columns and labels:
Experiment in all cases: microscale thermophoresis
CaV2.2 AID peptide AID [1] = molecular target: T1, CaV2.2 AID peptide AID (UniProt Q00975)
T1 chain: QQIERELNGYLEWIFKAE

CaV2.1 AID peptide AID [2] = molecular target: T2, CaV2.1 AID peptide AID (UniProt O00555)
T2 chain: QQIERELNGYMEWISKAE

CaV1.1 AID peptide AID [3] = molecular target: T3, CaV1.1 AID peptide AID (UniProt Q13698)
T3 chain: QQLDEDLRGYMSWITQGE

CaV2.1 AID peptide AID [4] = molecular target: T4, CaV2.1 AID peptide AID (UniProt O00555, IPPQ present)
T4 chain: QQIERELNGYMEWISKAE

CaV1.1 AID peptide AID [5] = molecular target: T5, CaV1.1 AID peptide AID (UniProt Q13698, IPPQ present)
T5 chain: QQLDEDLRGYMSWITQGE

CaV2.2 AID peptide AID [6] = molecular target: T6, CaV2.2 AID peptide AID (UniProt Q00975, IPPQ present)
T6 chain: QQIERELNGYLEWIFKAE

- Kd (CaV2.2 AID peptide AID [1]): 12 nM
- Kd (CaV2.1 AID peptide AID [2]): 18.3 nM
- Kd (CaV1.1 AID peptide AID [3]): 24 nM
- Kd (CaV2.1 AID peptide AID [4]): 93 nM
- Kd (CaV1.1 AID peptide AID [5]): 51 nM
- Kd (CaV2.2 AID peptide AID [6]): 208 nM
B1: CaVβ2 (protein)
chain: not shown
